{"source": "paper PMC5640511", "about": "(Current Biology, 2017)", "binders": {"B1": {"name": "BubR1 1-571 B1-LL (recombinant) (other)", "chain": "MAAVKKEGGALSEAMSLEGDEWELSKENVQPLRQGRIMSTLQGALAQESACNNTLQQQKRAFEYEIRFYTGNDPLDVWDRYISWTEQNYPQGGKESNMSTLLERAVEALQGEKRYYSDPRFLNLWLKLGRLCNEPLDMYSYLHNQGIGVSLAQFYISWAEEYEARENFRKADAIFQEGIQQKAEPLERLQSQHRQFQARVSRQTLLALEKEEEEEVFESSVPQRSTLAELKSKGKKTARAPIIRVGGALKAPSQNRGLQNPFPQQMQNNSRITVFDENADEASTAELSKPTVQPWIAPPMPRAKENELQAGPWNTGRSLEHRPRGNTASLIAVPAVLPSFTPYVEETARQPVMTPCKIEPSIRRVITISKSEYSVHSSLASKVDVEQVVMYCKEKIYAGVGEFSFEEIRAEVFRKKLKEQREAELLTSAEKRAEMQKQIEEMEKKLKEIQTTQQERTGDQQEETMPTKETTKLQIASESQKIPGMTLSSSVCQVNCCARETSLAENIWQEQPHSKGPSVPFSIFDEFLLSEKKNKSPPADPPRVLAQRRPLAVLKTSESITSNE"}}, "molecular_target": "Bub3 (recombinant, untagged) (human, UniProt O43684 1-328)", "sequence (O43684 whole entry)": "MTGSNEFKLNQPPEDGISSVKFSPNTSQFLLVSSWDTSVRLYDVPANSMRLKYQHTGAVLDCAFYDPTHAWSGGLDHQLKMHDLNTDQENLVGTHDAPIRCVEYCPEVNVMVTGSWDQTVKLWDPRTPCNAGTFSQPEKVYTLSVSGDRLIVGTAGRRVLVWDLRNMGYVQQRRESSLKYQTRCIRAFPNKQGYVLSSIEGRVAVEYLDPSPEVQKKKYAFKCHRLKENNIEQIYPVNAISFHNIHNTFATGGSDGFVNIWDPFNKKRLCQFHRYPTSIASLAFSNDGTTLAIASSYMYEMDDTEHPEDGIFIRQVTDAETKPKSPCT", "assay": "SEC"}
{"binder": "B1", "values": [{"measurement": "binding result", "result": "binds"}]}
